Source: patent US20180195056

B1: full-length xlAtg4B (Xenopus laevis Atg4B, residues 1-384) (protein)
chain: MDAATLTYDTLRFADTPDFPETAEPVWVLGRKYSALTEKEQLLNDITSRLWFTYRRNFQAIGGTGPTSDTGWGCMLRCGQMIFAQALICRHVGRDWRWDKQKPKGEYLNILTAFLDKKDSYYSIHQIAQMGVGEGKYIGQWYGPNTVAQVLRKLAVFDQWSSIAVHIAMDNTVVVDEIRRLCRAGSGESSDAGALSNGYTGDSDPSCAQWKPLVLLIPLRLGLSEINEAYIETLKHCFMVPQSLGVIGGRPNSAHYFIGYVGDELIYLDPHTTQLSVEPSDCSFIEDESFHCQHPPCRMHVSEIDPSIAVGFFCSSQEDFEDWCQHIKKLSLSGGALPMFEVVDQLPLHLSNPDVLNLTPDSSDADRLDRFFDSEDEEFEILSL
B2: xlAtg4B^14-384 (protein)
chain: ADTPDFPETAEPVWVLGRKYSALTEKEQLLNDITSRLWFTYRRNFQAIGGTGPTSDTGWGCMLRCGQMIFAQALICRHVGRDWRWDKQKPKGEYLNILTAFLDKKDSYYSIHQIAQMGVGEGKYIGQWYGPNTVAQVLRKLAVFDQWSSIAVHIAMDNTVVVDEIRRLCRAGSGESSDAGALSNGYTGDSDPSCAQWKPLVLLIPLRLGLSEINEAYIETLKHCFMVPQSLGVIGGRPNSAHYFIGYVGDELIYLDPHTTQLSVEPSDCSFIEDESFHCQHPPCRMHVSEIDPSIAVGFFCSSQEDFEDWCQHIKKLSLSGGALPMFEVVDQLPLHLSNPDVLNLTPDSSDADRLDRFFDSEDEEFEILSL
B3: xlAtg4B^25-345 (protein)
chain: PVWVLGRKYSALTEKEQLLNDITSRLWFTYRRNFQAIGGTGPTSDTGWGCMLRCGQMIFAQALICRHVGRDWRWDKQKPKGEYLNILTAFLDKKDSYYSIHQIAQMGVGEGKYIGQWYGPNTVAQVLRKLAVFDQWSSIAVHIAMDNTVVVDEIRRLCRAGSGESSDAGALSNGYTGDSDPSCAQWKPLVLLIPLRLGLSEINEAYIETLKHCFMVPQSLGVIGGRPNSAHYFIGYVGDELIYLDPHTTQLSVEPSDCSFIEDESFHCQHPPCRMHVSEIDPSIAVGFFCSSQEDFEDWCQHIKKLSLSGGALPMFEVVDQ
B4: xlAtg4B^25-384 (protein)
chain: PVWVLGRKYSALTEKEQLLNDITSRLWFTYRRNFQAIGGTGPTSDTGWGCMLRCGQMIFAQALICRHVGRDWRWDKQKPKGEYLNILTAFLDKKDSYYSIHQIAQMGVGEGKYIGQWYGPNTVAQVLRKLAVFDQWSSIAVHIAMDNTVVVDEIRRLCRAGSGESSDAGALSNGYTGDSDPSCAQWKPLVLLIPLRLGLSEINEAYIETLKHCFMVPQSLGVIGGRPNSAHYFIGYVGDELIYLDPHTTQLSVEPSDCSFIEDESFHCQHPPCRMHVSEIDPSIAVGFFCSSQEDFEDWCQHIKKLSLSGGALPMFEVVDQLPLHLSNPDVLNLTPDSSDADRLDRFFDSEDEEFEILSL

Protein | salt sensitivity of substrate cleavage (500 nM protease, 1 h, 0° C.) (His14-xlGATE16-MBP) | temperature needed for near-complete cleavage of a 6600-fold substrate excess in 1 h (His14-xlGATE16-MBP) | cleavage efficiency at limiting substrate concentration (constant protease:substrate ratio 1:1000, 1 h, 0° C.) (His14-xlLC3B-MBP) | protease concentration sufficient to cleave 100 µM substrate within 1 h at 0° C. (His14-xlLC3B-MBP) | salt sensitivity of substrate cleavage (500 nM protease, 1 h, 0° C.) (His14-xlLC3B-MBP) | substrate excess cleaved to near completion within 1 h at 37° C. (His14-xlLC3B-MBP) | substrate excess cleaved to near completion within 1 h at 25° C. (His14-xlGATE16-MBP) | substrate cleavage (20 µM protease, 100 µM substrate, 3 h, 25° C.) (His14-xlLC3B-MBP) | cleavage efficiency at limiting substrate concentration (constant protease:substrate ratio 1:2000, 1 h, 0° C.) (His14-xlGATE16-MBP) | percent of a 6600-fold substrate excess cleaved in 1 h at 37° C. (His14-xlGATE16-MBP) | protease concentration needed to cleave 100 µM substrate within 2 h at 0° C. (His14-xlGATE16-MBP) | protease required for substrate processing at 0° C., against the other protease fragments (His14-xlGATE16-MBP) | protease required for substrate processing at 25° C., against the other protease fragments (His14-xlGATE16-MBP) | temperature dependence of substrate cleavage (His14-xlLC3B-MBP) | time for efficient cleavage (>95%) at 500 nM protease, 0° C., against full-length or N-terminally truncated enzymes (His14-xlLC3B-MBP)
B1 | also full-length or N-terminally truncated xlAtg4B fragments showed a reduced cleavage activity at ≥1 M NaCl | the full-length enzyme required 37 °C for a similarly efficient cleavage | full-length xlAtg4B and both N-terminally shortened fragments could cleave the xlLC3B substrate rather efficiently even at substrate concentrations as low as 3-10 µM | 1 µM of each protease fragment was sufficient to cleave 100 µM of substrate within 1 h | xlLC3B processing by full-length xlAtg4B or its N-terminally truncated fragments was remarkably insensitive towards NaCl concentrations up to 1.5 M | Within 1 h at 37° C., all three enzymes were able to cleave a >3000-fold excess of the xlLC3B substrate to near completion |  |  |  |  |  |  |  |  | 
B2 | also full-length or N-terminally truncated xlAtg4B fragments showed a reduced cleavage activity at ≥1 M NaCl |  | full-length xlAtg4B and both N-terminally shortened fragments could cleave the xlLC3B substrate rather efficiently even at substrate concentrations as low as 3-10 µM | 1 µM of each protease fragment was sufficient to cleave 100 µM of substrate within 1 h | xlLC3B processing by full-length xlAtg4B or its N-terminally truncated fragments was remarkably insensitive towards NaCl concentrations up to 1.5 M | Within 1 h at 37° C., all three enzymes were able to cleave a >3000-fold excess of the xlLC3B substrate to near completion | near-complete cleavage of a 6600-fold substrate excess was reached for the two N-terminally shortened protease fragments already at 25 °C | xlLC3B was nearly exclusively recognized by xlAtg4B^14-384 |  |  |  |  |  |  | 
B3 | The weak activity of xlAtg4B^25-345 on xlGATE16 was further reduced at salt concentrations ≥0.5 M |  | the C-terminally truncated protease showed significantly reduced cleavage already at 100-30 µM substrate concentration | 1 µM of each protease fragment was sufficient to cleave 100 µM of substrate within 1 h | Deletion of the protease's C-terminus, however, rendered the reaction salt sensitive at NaCl concentrations ≥0.5 M |  |  |  | Even more drastic effects were observed when cleaving xlGATE16-MBP with xlAtg4B^25-345 (FIG. 6A, right lower panel). Here, processing was poor even at 300 µM substrate concentration | could only cleave ≈30-4 0% of a 6600-fold substrate excess even at 37 °C | 500 nM of xlAtg4B^25-345 were insufficient to cleave 100 µM of xlGATE16 substrate within 2 h at 0 °C | ≈10-fold and ≈30-fold more xlAtg4B^25-345 was required for xlGATE16 processing as compared to the other protease fragments at 0 °C and 25° C., respectively | ≈10-fold and ≈30-fold more xlAtg4B^25-345 was required for xlGATE16 processing as compared to the other protease fragments at 0 °C and 25° C., respectively | The boost of xlLC3B substrate processing at higher temperatures, however, was much weaker for this protease fragment | efficient cleavage (i.e. >95% cleavage) of the xlLC3B substrate required twice as long when using xlAtg4B^25-345 instead of the full-length or just N-terminally truncated xlAtg4B enzymes
B4 | also full-length or N-terminally truncated xlAtg4B fragments showed a reduced cleavage activity at ≥1 M NaCl |  | full-length xlAtg4B and both N-terminally shortened fragments could cleave the xlLC3B substrate rather efficiently even at substrate concentrations as low as 3-10 µM | 1 µM of each protease fragment was sufficient to cleave 100 µM of substrate within 1 h | xlLC3B processing by full-length xlAtg4B or its N-terminally truncated fragments was remarkably insensitive towards NaCl concentrations up to 1.5 M | Within 1 h at 37° C., all three enzymes were able to cleave a >3000-fold excess of the xlLC3B substrate to near completion | near-complete cleavage of a 6600-fold substrate excess was reached for the two N-terminally shortened protease fragments already at 25 °C |  |  |  |  |  |  |  | 
